Results published in patent US20080138335A1.

How the values were obtained:
[1] = target: CD40 expressed on Ramos [ATCC] cells (UniProt P25942); experiment: flow cytometry (FACS) on Ramos cells expressing CD40, negative control at 2 ug/ml, FIG. 1A
[2] = target: CD40 expressed on Ramos [ATCC] cells (UniProt P25942); experiment: flow cytometry (FACS) on Ramos cells expressing CD40, negative control at 2 ug/ml, FIG. 1B
[3] = target: CD40 expressed on Ramos [ATCC] cells (UniProt P25942); experiment: flow cytometry (FACS) on Ramos cells expressing CD40, negative control at 2 ug/ml, FIG. 3
[4] = target: CD40 expressed on Ramos [ATCC] cells (UniProt P25942); experiment: flow cytometry (FACS) on Ramos cells expressing CD40, negative control at 2 ug/ml, FIG. 1C
[5] = target: CD40 expressed on Ramos [ATCC] cells (UniProt P25942); experiment: cell-based or functional assay

CD40 expressed on Ramos [ATCC] cells, sequence (P25942 21-277 limits assumed): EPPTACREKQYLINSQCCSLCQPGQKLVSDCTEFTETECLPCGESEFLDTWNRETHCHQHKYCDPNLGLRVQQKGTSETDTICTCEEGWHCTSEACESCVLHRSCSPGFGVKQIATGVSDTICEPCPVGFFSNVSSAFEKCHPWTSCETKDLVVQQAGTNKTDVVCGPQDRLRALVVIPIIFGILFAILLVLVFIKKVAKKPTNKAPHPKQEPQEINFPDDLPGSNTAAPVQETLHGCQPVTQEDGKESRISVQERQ

human IgG1 antibody against human serum albumin
average fluorescence intensity (average fluorescence intensity) [1]: 7.15
average fluorescence intensity (average fluorescence intensity) [2]: 7.15
average fluorescence intensity (average fluorescence intensity) [3]: 5.01
average fluorescence intensity (average fluorescence intensity) [4]: 5.01
CD95 expression level in Ramos cells stimulated with soluble CD40 ligand, isotype control of FIG. 4 (average fluorescence intensity) [5]: 27.2
CD95 expression level in Ramos cells, isotype control of FIG. 2A (average fluorescence intensity) [5]: 7.58
CD95 expression level in Ramos cells, isotype control of FIG. 2B (average fluorescence intensity) [5]: 7.58
CD95 expression level in Ramos cells, isotype control of FIG. 2C (average fluorescence intensity) [5]: 6.29
